What was measured:
[1] = molecular target: T1, human protein C (PC) zymogen (human, UniProt P04070 43-197; P04070 200-461); assay: ELISA
T1 construct: Bought

[2] = molecular target: T2, human activated protein C (APC) (human, UniProt P04070 43-461); assay: cell-based or functional assay
[3] = molecular target: T2, human activated protein C (APC); assay: cell-based or functional assay; remark: listed apart in the source
[4] = molecular target: T2, human activated protein C (APC); assay: BLI, VHH captured via anti-V5, APC in solution
[5] = molecular target: T3, FXIa (UniProt P03951 19-625); assay: ELISA, FXIa coated at 10 µg/mL, HRP-anti-V5, n=3
T3 construct: also called factor XIa
T3 sequence (P03951 19-625 limits assumed): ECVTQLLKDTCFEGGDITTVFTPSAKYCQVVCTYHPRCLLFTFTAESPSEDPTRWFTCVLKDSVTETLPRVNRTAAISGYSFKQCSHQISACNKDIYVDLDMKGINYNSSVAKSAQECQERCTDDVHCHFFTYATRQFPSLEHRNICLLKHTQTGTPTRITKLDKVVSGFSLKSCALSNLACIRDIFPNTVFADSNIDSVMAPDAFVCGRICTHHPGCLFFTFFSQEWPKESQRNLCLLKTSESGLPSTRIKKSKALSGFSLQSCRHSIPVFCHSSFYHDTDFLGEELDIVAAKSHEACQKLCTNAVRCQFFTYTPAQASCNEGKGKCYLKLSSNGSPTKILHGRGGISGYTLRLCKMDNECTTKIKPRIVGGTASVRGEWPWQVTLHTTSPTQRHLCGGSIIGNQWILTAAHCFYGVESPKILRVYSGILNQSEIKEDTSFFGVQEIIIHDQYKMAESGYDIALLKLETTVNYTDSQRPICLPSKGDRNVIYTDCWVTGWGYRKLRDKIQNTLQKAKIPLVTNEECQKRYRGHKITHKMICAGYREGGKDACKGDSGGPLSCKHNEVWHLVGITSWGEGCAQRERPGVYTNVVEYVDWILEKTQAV

[6] = molecular target: T4, FVIIa (UniProt P08709 61-466); assay: ELISA, FVIIa coated at 10 µg/mL, HRP-anti-V5, n=3
T4 construct: also called factor VIIa
T4 sequence (looked up): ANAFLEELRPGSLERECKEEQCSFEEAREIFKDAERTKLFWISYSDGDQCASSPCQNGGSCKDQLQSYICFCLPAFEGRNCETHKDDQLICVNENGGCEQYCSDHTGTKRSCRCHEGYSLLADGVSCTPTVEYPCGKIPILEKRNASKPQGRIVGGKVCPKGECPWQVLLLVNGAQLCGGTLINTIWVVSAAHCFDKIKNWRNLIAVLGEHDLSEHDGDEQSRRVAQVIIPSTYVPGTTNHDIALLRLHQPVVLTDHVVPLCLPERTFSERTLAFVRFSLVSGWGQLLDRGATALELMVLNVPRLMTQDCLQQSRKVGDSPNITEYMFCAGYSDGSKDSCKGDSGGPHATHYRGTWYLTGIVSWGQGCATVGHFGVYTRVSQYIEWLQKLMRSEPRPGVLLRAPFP

[7] = molecular target: T2, human activated protein C (APC); assay: BLI; end tied to LP12 by Table 5; lower end of the koff range, LP9 set apart; LP12
[8] = molecular target: T2, human activated protein C (APC); assay: BLI (Octet): nanobody captured on anti-V5 sensor, dipped in 500 nM APC; buffer sensor reads 0.06

T2 sequence (P04070 other isoform, or with tags, fused parts or gaps): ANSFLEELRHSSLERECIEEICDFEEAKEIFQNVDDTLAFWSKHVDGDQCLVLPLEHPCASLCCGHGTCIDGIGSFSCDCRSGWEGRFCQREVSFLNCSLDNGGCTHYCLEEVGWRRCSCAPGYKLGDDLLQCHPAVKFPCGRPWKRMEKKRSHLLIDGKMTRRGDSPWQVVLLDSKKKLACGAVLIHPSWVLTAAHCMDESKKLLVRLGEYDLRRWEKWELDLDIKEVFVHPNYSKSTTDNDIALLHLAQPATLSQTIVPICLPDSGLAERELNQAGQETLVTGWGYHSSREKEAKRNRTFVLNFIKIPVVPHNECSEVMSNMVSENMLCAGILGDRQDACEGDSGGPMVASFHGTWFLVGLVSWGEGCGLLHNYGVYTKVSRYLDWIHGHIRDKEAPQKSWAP
T1 sequence (P04070 43-197, chain 1 of 2): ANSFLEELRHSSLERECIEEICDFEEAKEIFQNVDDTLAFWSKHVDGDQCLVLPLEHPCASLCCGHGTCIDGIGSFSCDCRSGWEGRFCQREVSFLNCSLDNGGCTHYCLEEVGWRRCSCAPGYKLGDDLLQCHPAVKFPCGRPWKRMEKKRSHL
T1 sequence (P04070 200-461, chain 2 of 2): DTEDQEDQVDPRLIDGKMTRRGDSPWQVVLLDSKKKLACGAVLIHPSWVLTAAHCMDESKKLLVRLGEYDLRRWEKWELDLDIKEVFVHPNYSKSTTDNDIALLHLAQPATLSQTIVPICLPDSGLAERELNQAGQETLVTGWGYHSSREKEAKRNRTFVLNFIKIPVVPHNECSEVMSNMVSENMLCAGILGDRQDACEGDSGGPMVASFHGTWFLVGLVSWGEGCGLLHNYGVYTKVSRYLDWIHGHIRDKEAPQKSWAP

binding result [1]: no binding | APC-mediated histone H3 cleavage, 500 nM nanobody [2]: < 75 % residual activity | APC plasma T1/2 (min; mean) [3]: 50.1 min | Kd [4]: 680 pM | koff [4]: 0.00026 s⁻¹ | kon [4]: 380000 M⁻¹ s⁻¹ | binding result [5]: no binding (tested: 2 µg/mL) | binding result [6]: no binding (tested: 2 µg/mL) | koff [7]: 0.000259 s⁻¹ | APC binding (nm) [8]: 0.31 nm
B1: LP12 (SR16983-R3-P3-F06) (VHH, not shown: small tags and cut ends)
VHH: QLQLVESGGGLVQAGDSLRLSCTSSGLTASTYAMAWFRQAPGKEREFVAVVDWKGDTTYANSVKGRFTLSRDNGKNTNYLQMNSLQPEDTALYYCAARGSPGYVARLYAHWGRGTQVTVSS
notes: Llama VHH purified from E. coli periplasm

From patent US20250163183A1 (COAGULANT THERAPEUTICS, published 2025)
